{"source": "patent EP1230350B1", "about": "“SITE-DIRECTED MUTAGENESIS OF ESCHERICHIA COLI PHYTASE” (CORNELL RESEARCH FOUNDATION, INC., priority 1999, dated 2001)", "molecules": {"B1": {"name": "Escherichia coli acid phosphatase/phytase (appA) Mutant Y (construct E2A1P2P3K2: A131N, V134N, C200N, D207N, S211N), expressed in Pichia pastoris (Escherichia … (protein)", "chain": "AFAQSEPELKLESVVIVSRHGVRAPTKATQLMQDVTPDAWPTWPVKLGWLTPRGGELIAYLGHYQRQRLVADGLLAKKGCPQSGQVAIIADVDERTRKTGEAFAAGLAPDCNITNHTQADTSSPDPLFNPLKTGVCQLDNANVTDAILSRAGGSIADFTGHRQTAFRELERVLNFPQSNLNLKREKQNESCNLTQALPSELKVSADNVSLTGAVSLASMLTEIFLLQQAQGMPEPGWGRITDSHQWNTLLSLHNAQFYLLQRTPEVARSRATPLLDLIKTALTPHPPQKQAYGVTLPTSVLFIAGHDTNLANLGGALELNWTLPGQPDNTPPGGELVFERWRRLSDNSQWIQVSLVFQTLQQMRDKTPLSLNTPPGEVKLTLAGCEERNAQGMCSLAGFTQIVNEARIPACSL", "notes": "The coding region starts at the codon 20 and ends at the codon 432; alpha-factor secretion leader of vector pPICZαA (own knowledge of the vector); made in house; host or cells: Pichia pastoris X33"}, "B2": {"name": "Escherichia coli acid phosphatase/phytase (appA) Mutant R (construct E2A1P3K2: A131N, V134N, D207N, S211N), expressed in Pichia pastoris (Escherichia coli … (protein)", "chain": "B1 chain with N181C", "notes": "as for B1"}, "B3": {"name": "Escherichia coli acid phosphatase/phytase (appA) Mutant U (construct E2P2P3K2: C200N, D207N, S211N), SEQ. ID. No. 3, expressed in Pichia pastoris (Escherichia … (protein)", "chain": "B1 chain with N112A, N115V", "notes": "as for B1"}, "B4": {"name": "Escherichia coli acid phosphatase/phytase (appA), wild type r-AppA, SEQ. ID. No. 1, expressed in Pichia pastoris (Escherichia coli K-12) (protein)", "chain": "B1 chain with N112A, N115V, N181C, N188D, N192S", "notes": "as for B1"}}, "assay_in_all_cases": "Enzyme kinetics of acid phosphatase/phytase (pNPP and sodium phytate as substrates)", "key": {"[1]": {"target": "T1, Escherichia coli acid phosphatase/phytase (appA) Mutant U (construct E2P2P3K2: C200N, D207N, S211N), SEQ. ID. No. 3, expressed in Pichia pastoris (Escherichia coli, UniProt P07102, C200N/D207N/S211N)", "T1 construct": "The coding region starts at the codon 20 and ends at the codon 432; alpha-factor secretion leader of vector pPICZαA (own knowledge of the vector); made in house; host or cells: Pichia pastoris X33", "T1 sequence (P07102 20-432 C200N/D207N/S211N)": "B1 chain with N112A, N115V", "type": "biochemical", "description": "The expressed r-AppA and mutant enzymes in the medium supernatant were subjected to a two-step ammonium sulfate precipitation (25% and 75%) as previously described (Rodriguez, E. et al., Biochem. Biophys. Res. Commun. 257:117-23 (1999)). The suspension of the first round was centrifuged at 4°C, 25,000 x g for 20 min. The pellet of the second round was suspended in 10 ml and dialyzed overnight against 25 mM Tris-HCl, pH 7. After dialysis, the protein extract was loaded onto a DEAE (diethylaminoethyl)-Sepharose column (Sigma, St. Louis, MO) equilibrated with 25 mM Tris-HCl, pH 7. The bound protein was eluted with 1 M NaCl in 25 mM Tris-CH1, pH 7. […] Phytase activity was measured using sodium phytate as the substrate (Rodriguez, E. et al., Biochem. Biophys. Res. Commun. 257:117-23 (1999); Piddington, C.S. et al., Gene 133:55-62 (1993)). […] Free inorganic phosphorus was measured at 820 nm after 0.2 ml of the sample was mixed with 1.8 ml of H2O and 2 ml of a solution containing 0.6 M H2SO4, 2% ascorbic acid, and 0.5% ammonium molybdate, followed by incubation for 20 min at 50°C. […] The released p-nitrophenol was measured at 405 nm after 0.1 ml of the sample was mixed with 0.9 ml of 1 M NaOH and incubated for 10 min. […] After the samples were cooled on ice for 30 min, their remaining phytase activies were measured as described above. […]"}, "[2]": {"substrate": "O=[N+]([O-])c1ccc(OP(=O)(O)O)cc1", "type": "biochemical, Escherichia coli", "conditions": "0.25 M glycine-HCl, pH 2.5, 37°C, Lineweaver-Burk plot", "description": "(§1) The expressed r-AppA and mutant enzymes in the medium supernatant were subjected to a two-step ammonium sulfate precipitation (25% and 75%) as previously described (Rodriguez, E. et al., Biochem. Biophys. Res. Commun. 257:117-23 (1999)). The suspension of the first round was centrifuged at 4°C, 25,000 x g for 20 min. The pellet of the second round was suspended in 10 ml and dialyzed overnight against 25 mM Tris-HCl, pH 7. After dialysis, the protein extract was loaded onto a DEAE (diethylaminoethyl)-Sepharose column (Sigma, St. Louis, MO) equilibrated with 25 mM Tris-HCl, pH 7. The bound protein was eluted with 1 M NaCl in 25 mM Tris-CH1, pH 7. […] Phytase activity was measured using sodium phytate as the substrate (Rodriguez, E. et al., Biochem. Biophys. Res. Commun. 257:117-23 (1999); Piddington, C.S. et al., Gene 133:55-62 (1993)). The enzyme was diluted in 0.25 M glycine-HCl, pH 2.5, and an equal volume of substrate solution containing 11 mM sodium phytate (Sigma) was added. After incubation of the sample for 15 min at 37°C, the reaction was stopped by addition of an equal volume of 15% trichloroacetic acid. Free inorganic phosphorus was measured at 820 nm after 0.2 ml of the sample was mixed with 1.8 ml of H2O and 2 ml of a solution containing 0.6 M H2SO4, 2% ascorbic acid, and 0.5% ammonium molybdate, followed by incubation for 20 min at 50°C. One phytase unit was defined as the amount of activity that releases 1 µmol of inorganic phosphorus from sodium phytate per minute at 37°C. The final concentrations of sodium phytate used for the enzyme kinetics were: 0.1, 0.25, 0.5, 0.75, 1, 2.5, 10, and 25 mM. Acid phosphatase activity was assayed using pNPP (Sigma) at a final concentration of 25 mM (Smith, R. et al., Protein Engineerine 5:35-41 (1992)). To 50 µl of enzyme (40 nmol), 850 µl of 250 mM glycine-HCl, pH 2.5, were added. After 5 min of incubation at 37°C, 100 µl of pNPP was added. The released p-nitrophenol was measured at 405 nm after 0.1 ml of the sample was mixed with 0.9 ml of 1 M NaOH and incubated for 10 min. The final concentrations ofpNPP used for the enzyme kinetics were: 0.1, 0.2, 0.75, 1, 2.5, 10, and 25 mM. One unit of acid phosphatase/phytase activity was defined as the amount of enzyme catalyzing the formation of 1 µmol of p-nitrophenol per minute. Before the thermostability assay, the enzyme (2 mg/ml) was diluted 1:400 in 0.2 M glycine-HCl, pH 2.5. The diluted samples were incubated for 15 min at 25, 55, 80, and 90°C. After the samples were cooled on ice for 30 min, their remaining phytase activies were measured as described above. Deglycosylation of purified enzymes was done by incubating 100 µg of total protein with 0.5 IU endoglycosidase Hf (Endo Hf) for 4 h at 37°C according to the manufacturer's instructions (New England Biolabs, Beverly, MA). Sodium dodecyl sulfate-polyacrylamide gel electrophoresis (SDS-PAGE), 15% (w/v) gel was performed as previously described (Laenunli, U.K., Nature 227:680-85 (1970)). Protein concentrations were determined using the Lowry method (Lowry, O.H. et al., J. Biol. Chem. 193:265-75 (1951)).\n(§2) The Km value for pNPP (p-nitrophenyl phosphate) was reduced by one-half and the one for sodium phytate by 70% with Mutant U, versus r-AppA (P < 0.05) (Table 4)."}, "[3]": {"substrate": "O=P(O)(O)OC1C(OP(=O)(O)O)C(OP(=O)(O)O)C(OP(=O)(O)O)C(OP(=O)(O)O)C1OP(=O)(O)O", "type": "biochemical, Escherichia coli", "conditions": "0.25 M glycine-HCl, pH 2.5, 37°C, Lineweaver-Burk plot", "description": "as §1, §2"}}, "note": "Where a chain is given by its changes, count along the chain named. Names may count otherwise. Marks after values point to notes of the source that are not given here."}
{"molecule": "O=P(O)(O)O[C@H]1[C@H](OP(=O)(O)O)[C@@H](OP(=O)(O)O)[C@H](OP(=O)(O)O)[C@@H](OP(=O)(O)O)[C@H]1OP(=O)(O)O", "note": "[Na-Phytate, sodium phytate]", "values": [{"measurement": "increase in apparent catalytic efficiency kcat/Km for sodium phytate than that of r-AppA", "setting": "[1]; Mutant U versus r-AppA", "value": 5.2, "unit": "fold"}, {"measurement": "Km value for sodium phytate reduced, versus r-AppA", "setting": "[1]; Mutant U versus r-AppA (P < 0.05)", "value": 70, "unit": "%"}]}
{"molecule": "B1", "values": [{"measurement": "Km", "setting": "[2]; other: Mutant Y", "value": "3180 ± 390", "unit": "µM"}, {"measurement": "kcat", "setting": "[2]; other: Mutant Y", "value": "787 ± 6.7", "unit": "min⁻¹"}, {"measurement": "kcat/Km", "setting": "[2]; other: Mutant Y", "value": "(2.5 ± 0.17) x 10^5 min^-1 M^-1"}, {"measurement": "Km", "setting": "[3]; other: Mutant Y", "value": "2030 ± 190", "unit": "µM"}, {"measurement": "kcat", "setting": "[3]; other: Mutant Y", "value": "3431 ± 41^* min^-1"}, {"measurement": "kcat/Km", "setting": "[3]; other: Mutant Y", "value": "(1.69 ± 0.21) x 10^6* min^-1 M^-1"}]}
{"molecule": "B2", "values": [{"measurement": "Km", "setting": "[2]; other: Mutant R", "value": "7870 ± 840", "unit": "µM"}, {"measurement": "kcat", "setting": "[2]; other: Mutant R", "value": "390 ± 5.9^* min^-1"}, {"measurement": "kcat/Km", "setting": "[2]; other: Mutant R", "value": "(0.5 ± 0.07) x 10^5* min^-1 M^-1"}, {"measurement": "Km", "setting": "[3]; other: Mutant R", "value": "3070 ± 260", "unit": "µM"}, {"measurement": "kcat", "setting": "[3]; other: Mutant R", "value": "1657 ± 23^* min^-1"}, {"measurement": "kcat/Km", "setting": "[3]; other: Mutant R", "value": "(0.54 ± 0.09) x 10^6* min^-1 M^-1"}]}
{"molecule": "B3", "values": [{"measurement": "Km", "setting": "[2]; other: Mutant U", "value": "1860 ± 35000", "unit": "µM"}, {"measurement": "kcat", "setting": "[2]; other: Mutant U", "value": "1073 ± 13^* min^-1"}, {"measurement": "kcat/Km", "setting": "[2]; other: Mutant U", "value": "(5.8 ± 0.37) x 10^5* min^-1 M^-1"}, {"measurement": "Km", "setting": "[3]; other: Mutant U", "value": "580 ± 80", "unit": "µM"}, {"measurement": "kcat", "setting": "[3]; other: Mutant U", "value": "4003 ± 56^* min^-1"}, {"measurement": "kcat/Km", "setting": "[3]; other: Mutant U", "value": "(6.90 ± 0.70) x 10^6* min^-1 M^-1"}]}
{"molecule": "B4", "values": [{"measurement": "Km", "setting": "[2]; other: r-AppA", "value": "3660 ± 440", "unit": "µM"}, {"measurement": "kcat", "setting": "[2]; other: r-AppA", "value": "752 ± 7.9", "unit": "min⁻¹"}, {"measurement": "kcat/Km", "setting": "[2]; other: r-AppA", "value": "(2.0 ± 0.18) x 10^5 min^-1 M^-1"}, {"measurement": "Km", "setting": "[3]; other: r-AppA", "value": "1950 ± 250", "unit": "µM"}, {"measurement": "kcat", "setting": "[3]; other: r-AppA", "value": "2148 ± 33", "unit": "min⁻¹"}, {"measurement": "kcat/Km", "setting": "[3]; other: r-AppA", "value": "(1.11 ± 0.13) x 10^6 min^-1 M^-1"}]}
